Data taken from patent US20130209454A1 (CALIFORNIA INSTITUTE OF TECHNOLOGY, published 2013).

Key:
Experiment in all cases: cell-based or functional assay
[1] = target: HIV-1 strain 211-9 envelope (gp120) (HIV-1)
[2] = target: HIV-1 strain 89-F1_2_25 envelope (gp120) (HIV-1)
[3] = target: HIV-1 strain 6811.v7.c18 envelope (gp120) (HIV-1)
[4] = target: HIV-1 strain 6540.v4.c1 envelope (gp120) (HIV-1)
[5] = target: HIV-1 strain 1056_10_TA11_1826 envelope (gp120) (HIV-1)
[6] = target: HIV-1 strain REJO4541.67 envelope (gp120) (HIV-1)
[7] = target: HIV-1 strain T250-4 envelope (gp120) (HIV-1)
[8] = target: HIV-1 strain 231966.c02 envelope (gp120) (HIV-1)
[9] = target: HIV-1 strain CNE17 envelope (gp120) (HIV-1)
[10] = target: HIV-1 strain THRO4156.18 envelope (gp120) (HIV-1)
[11] = target: HIV-1 strain Q769.d22 envelope (gp120) (HIV-1)
[12] = target: HIV-1 strain 928-28 envelope (gp120) (HIV-1)
[13] = target: HIV-1 strain Ce2010_F5 envelope (gp120) (HIV-1)
[14] = target: HIV-1 strain X2131_C1_B5 envelope (gp120) (HIV-1)
[15] = target: HIV-1 strain ZM233M.PB6 envelope (gp120) (HIV-1)
[16] = target: HIV-1 strain 3718.v3.c11 envelope (gp120) (HIV-1)
[17] = target: HIV-1 strain X1193_c1 envelope (gp120) (HIV-1)
[18] = target: HIV-1 strain 1006_11_C3_1601 envelope (gp120) (HIV-1)
[19] = target: HIV-1 strain CAP210.2.00.E8 envelope (gp120) (HIV-1)
[20] = target: HIV-1 strain ZM247v1(Rev-) envelope (gp120) (HIV-1)
[21] = target: HIV-1 strain ZM214M.PL15 envelope (gp120) (HIV-1)
[22] = target: HIV-1 strain 6480.v4.c25 envelope (gp120) (HIV-1)
[23] = target: HIV-1 strain P1981_C5_3 envelope (gp120) (HIV-1)
[24] = target: HIV-1 strain 0330.v4.c3 envelope (gp120) (HIV-1)
[25] = target: HIV-1 strain 620345.c01 envelope (gp120) (HIV-1)
[26] = target: HIV-1 strain 62357_14_D3_4589 envelope (gp120) (HIV-1)
[27] = target: HIV-1 strain R2184.04 envelope (gp120) (HIV-1)
[28] = target: HIV-1 strain ZM109F.PB4 envelope (gp120) (HIV-1)
[29] = target: HIV-1 strain C1080.c03 envelope (gp120) (HIV-1)
[30] = target: HIV-1 strain ZM197M.PB7 envelope (gp120) (HIV-1)
[31] = target: HIV-1 strain TRJO4551.58 envelope (gp120) (HIV-1)
[32] = target: HIV-1 strain WEAU_d15_410_787 envelope (gp120) (HIV-1)
[33] = target: HIV-1 strain R1166.c01 envelope (gp120) (HIV-1)
[34] = target: HIV-1 strain Q23.17 envelope (gp120) (HIV-1)
[35] = target: HIV-1 strain Du422.1 envelope (gp120) (HIV-1)
[36] = target: HIV-1 strain 703357.C02 envelope (gp120) (HIV-1)
[37] = target: HIV-1 strain C3347.c11 envelope (gp120) (HIV-1)
[38] = target: HIV-1 strain Q259.d2.17 envelope (gp120) (HIV-1)
[39] = target: HIV-1 strain 6535.3 envelope (gp120) (HIV-1)
[40] = target: HIV-1 strain TRO.11 envelope (gp120) (HIV-1)
[41] = target: HIV-1 strain Ce2060_G9 envelope (gp120) (HIV-1)

B1: NIH45-46 IgG (antibody, V domains shown)
VH: QVRLSQSGGQMKKPGESMRLSCRASGYEFLNCPINWIRLAPGRRPEWMGWLKPRGGAVNYARKFQGRVTMTRDVYSDTAFLELRSLTSDDTAVYFCTRGKYCTARDYYNWDFEHWGRGAPVTVSS
VL: EIVLTQSPATLSLSPGETAIISCRTSQSGSLAWYQQRPGQAPRLVIYSGSTRAAGIPDRFSGSRWGADYNLSISNLESGDFGVYYCQQYEFFGQGTKVQVDI
- neutralization IC80 [1]: > 50 µg/mL
- neutralization IC80 [2]: > 50 µg/mL
- neutralization IC80 [3]: 0.113 µg/mL
- neutralization IC80 [4]: > 50 µg/mL
- neutralization IC80 [5]: 0.447 µg/mL
- neutralization IC80 [6]: 0.035 µg/mL
- neutralization IC80 [7]: > 50 µg/mL
- neutralization IC80 [8]: 9.64 µg/mL
- neutralization IC80 [9]: 0.734 µg/mL
- neutralization IC80 [10]: 8.22 µg/mL
- neutralization IC80 [11]: 0.033 µg/mL
- neutralization IC80 [12]: 0.64 µg/mL
- neutralization IC80 [13]: 0.357 µg/mL
- neutralization IC80 [14]: 0.88 µg/mL
- neutralization IC80 [15]: 14.2 µg/mL
- neutralization IC80 [16]: > 50 µg/mL
- neutralization IC80 [17]: 0.064 µg/mL
- neutralization IC80 [18]: 0.196 µg/mL
- neutralization IC80 [19]: > 50 µg/mL
- neutralization IC80 [20]: 24.5 µg/mL
- neutralization IC80 [21]: 0.59 µg/mL
- neutralization IC80 [22]: 0.1 µg/mL
- neutralization IC80 [23]: 0.24 µg/mL
- neutralization IC80 [24]: 0.3 µg/mL
- neutralization IC80 [25]: > 50 µg/mL
- neutralization IC80 [26]: 0.19 µg/mL
- neutralization IC80 [27]: 0.127 µg/mL
- neutralization IC80 [28]: 0.437 µg/mL
- neutralization IC80 [29]: 11.6 µg/mL
- neutralization IC80 [30]: 0.55 µg/mL
- neutralization IC80 [31]: 0.13 µg/mL
- neutralization IC80 [32]: 0.015 µg/mL
- neutralization IC80 [33]: 1.21 µg/mL
- neutralization IC80 [34]: 0.5 µg/mL
- neutralization IC80 [35]: > 50 µg/mL
- neutralization IC80 [36]: > 50 µg/mL
- neutralization IC80 [37]: 0.094 µg/mL
- neutralization IC80 [38]: 0.154 µg/mL
- neutralization IC80 [39]: 0.54 µg/mL
- neutralization IC80 [40]: 7.49 µg/mL
- neutralization IC80 [41]: 0.29 µg/mL
